Measured values reported in patent publication US20220204633A1 (UNIVERSIT T Z RICH, published 2022).

Target: T1, human recombinant biotinylated FcRn (Immunitrack) (human, UniProt P55899 24-297; P61769 21-119, limits assumed, biotinylated (site not stated))
T1 construct: Immobilized on a ProteOn NLC chip for SPR at pH 6.0; also called human FcRn; human recombinant FcRn
Test: SPR, human FcRn immobilized, IL-12Fc variants in liquid phase, pH 6.0

fold reduction of affinity against IL-12Fc WT: ~8 fold
B1: human IL-12Fc NHQ (Fc fusion)
chain: IWELKKDVYVVELDWYPDAPGEMVVLTCDTPEEDGITWTLDQSSEVLGSGKTLTIQVKEFGDAGQYTCHKGGEVLSHSLLLLHKKEDGIWSTDILKDQKEPKNKTFLRCEAKNYSGRFTCWWLTTISTDLTFSVKSSRGSSDPQGVTCGAATLSAERVRGDNKEYEYSVECQEDSACPAAEESLPIEVMVDAVHKLKYENYTSSFFIRDIIKPDPPKNLQLKPLKNSRQVEVSWEYPDTWSTPHSYFSLTFCVQVQGKSKREKKDRVFTDKTSATVICRKNASISVRAQDRYYSSSWSEWASVPCSGGGGSGGGGSGGGGSRNLPVATPDPGMFPCLHHSQNLLRAVSNMLQKARQTLEFYPCTSEEIDHEDITKDKTSTVEACLPLELTKNESCLNSRETSFITNGSCLASRKTSFMMALCLSSIYEDLKMYQVEFKTMNAKLLMDPKRQIFLDQNMLAVIDELMQALNFNSETVPQKSSLEEPDFYKTKIKLCILLHAFRIRAVTIDRVMSYLNASKVDKRVESKYGPPCPPCPAPEFLGGPSVFLFPPKPKDTLMNSRTPEVTCVVVDVSQEDPEVQFNWYVDGVEVHNAKTKPREEQFNSTYRVVSVLTVLHQDWLNGKEYKCKVSNKGLPSSIEKTISKAKGQPREPQVYTLPPSPEEMTKNQVSLTCLVKGFYPSDIAVEWESNGQPENNYKTTPPVLDSDGSFFLYSRLTVDKSRWQEGNVFSCSVMHEALHNQYTQKSLSLSLGK
notes: also called NHQ variant
